Experimental findings from article PMC7932536 are described below.

The target of experiment [1] is Human amyloid beta (Aβ) 42 peptide (human) (UniProt P05067).
Experiment [2] has the same target. This is another data set of the same source.

Sequence of SAMP8 type Serpina3n (Q91WP6 21-418): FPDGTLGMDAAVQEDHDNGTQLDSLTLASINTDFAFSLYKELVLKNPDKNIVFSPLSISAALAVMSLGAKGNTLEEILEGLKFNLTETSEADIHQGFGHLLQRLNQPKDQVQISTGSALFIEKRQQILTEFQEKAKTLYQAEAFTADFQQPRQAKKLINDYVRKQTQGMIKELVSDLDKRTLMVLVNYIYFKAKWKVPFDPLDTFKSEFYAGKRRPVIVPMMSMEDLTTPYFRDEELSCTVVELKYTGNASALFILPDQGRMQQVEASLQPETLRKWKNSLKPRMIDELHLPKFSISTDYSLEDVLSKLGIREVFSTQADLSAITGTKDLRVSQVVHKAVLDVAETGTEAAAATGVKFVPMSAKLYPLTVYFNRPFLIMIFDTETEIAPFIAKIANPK

Regarding “SAMP8 type Serpina3n (from UniProt Q91WP6 21-418) (natural protein)”, the prevalence of oligomer rich observation fields of Aβ 42 under TEM, 0 to 72 hr of preincubation (delayed fibrillization) in experiment [1] was 72 h. In addition, in experiment [2], the thioflavin T fluorescence assay of Aβ 42 fibrillization (time for which oligomeric or small protofibrillar forms were kept before the plateau) is 13 h.
